Test results: patent EP4421085A1

What was measured:
[1] = molecular target: biotinylated alpha synuclein (aSN) 1-140 (UniProt P37840); assay: SPR (Biacore 8K), biotinylated aSN on SA chip, binder as analyte, 37 °C
[2] = molecular target: recombinant human alpha synuclein E46K (human) (UniProt P37840); assay: cell-based or functional assay
[3] = molecular target: recombinant human alpha synuclein A30P (human) (UniProt P37840); assay: cell-based or functional assay
[4] = molecular target: recombinant human alpha synuclein A53T (human) (UniProt P37840); assay: cell-based or functional assay
[5] = molecular target: recombinant human wild type alpha synuclein (human) (UniProt P37840); assay: cell-based or functional assay
[6] = molecular target: biotinylated alpha synuclein (aSN) 1-140 (UniProt P37840); assay: SPR (Biacore 8K), biotinylated aSN on SA chip, binder as analyte, 25 °C

Kd [1]: 64.9 nM
koff [1]: 0.000252 s⁻¹
kon [1]: 3880 M⁻¹ s⁻¹
Ranking of the binders in figure 5 (ThT aggregation assay) [2]: 4 rank
Ranking of the binders in figure 5 (ThT aggregation assay) [3]: 5 rank
Ranking of the binders in figure 5 (ThT aggregation assay) [4]: 6 rank
Ranking of the binders in figure 5 (ThT aggregation assay) [5]: 3 rank
Kd [6]: 72.2 nM
koff [6]: 0.000114 s⁻¹
kon [6]: 1580 M⁻¹ s⁻¹
Substance: AS69 (designed binder)
